From patent US20190338026A1 (University of Texas, published 2019)

T1: LAIR1 on LAIR1 reporter cells (human, UniProt Q6GTX8 22-165, limits assumed)
T1 chain: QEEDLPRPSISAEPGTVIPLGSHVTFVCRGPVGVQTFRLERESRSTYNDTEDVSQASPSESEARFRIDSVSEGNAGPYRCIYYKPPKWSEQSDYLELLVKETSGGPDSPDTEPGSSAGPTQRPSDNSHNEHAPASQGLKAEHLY

T2: human LAIR1 extracellular domain (ECD) protein with 6 HIS tag at the C-terminus (human, UniProt Q6GTX8 22-165)
T2 construct: Produced recombinantly in HEK293 cells; the whole entry is named here; also called LAIR1 ECD; LAIR1-ECD
T2 chain: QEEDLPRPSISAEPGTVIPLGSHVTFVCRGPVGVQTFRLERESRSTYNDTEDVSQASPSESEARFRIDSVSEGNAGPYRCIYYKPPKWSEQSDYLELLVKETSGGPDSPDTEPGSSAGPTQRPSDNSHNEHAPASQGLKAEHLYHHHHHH


How the values were obtained:
[1] = target: T1, LAIR1 on LAIR1 reporter cells; assay: cell-based or functional assay
[2] = target: T2, human LAIR1 extracellular domain (ECD) …; assay: ELISA, LAIR1 ECD coated, mAb titrated, anti-rabbit HRP
Protocol: (§1) The inventors then used a concentration titration (0-10 μg/ml) by ELISA to determine the LAIR1 monoclonal antibody (mAbs) binding to human LAIR1 ECD. […] For FIGS. 2-39, X axis indicates the antibody concentrations and Y-axis is binding signals, measured as OD (450 nm). To perform the ELISA assay, LAIR1 ECD recombinant protein was coated on high absorption 96-well plates. Serial diluted (3-fold) LAIR1 mAb was added to the coated/blocked plates and detected using goat anti-rabbit F(ab′)2 conjugated HRP as secondary antibody. All assays were repeated 3 times and the titration curves were fitted using 4-parameter fitting curve using the GraphPad software for EC₅₀ estimation.
(§2) Serial dilutions of the LAIR1 monoclonal antibodies (IgGs or scFvs fragments), starting from […] and 3-fold titration down for 12 steps, were added to the 96-well plate for binding by incubating 45 minutes at 37° C. with a cover on the assay plate. Then the plates were washed with PBS containing Tween 20 (0.05% concentration) for 3 times and PBS one time. […] Detection was conducted by adding HRP substrate, TMB (ThermoFisher) for 10 minutes, and stopped by adding 50 μl/well of 2N H2504. The plates were read for absorbance at 450 nm using a plate reader (SpectraMax M4, Molecular Devices). Data were collected and graphed using a 4-parameter fitting curve with GrapPad Prism 7 software for EC₅₀ calculation.

[3] = target: T1, LAIR1 on LAIR1 reporter cells; assay: cell-based or functional assay
[4] = target: T2, human LAIR1 extracellular domain (ECD) …; assay: ELISA, LAIR1 ECD coated
Protocol: as §1, §2

| Binder | GFP+% of LAIR1 reporter cells, collagen I coated, soluble Ab and K562 cells [1] [%] | EC50 [2] [pM] | GFP+% of LAIR1 reporter cells, collagen I coated, soluble Ab [3] [%] | EC50 (read off the curve) [4] [ng/mL] |
| --- | --- | --- | --- | --- |
| LA-151 (antibody, V domains shown, Rabbit monoclonal IgG) VH: SSSVEESGGRLVTPGTPLTLTCTVSGFSLGSYAMGWVRQGPGKGLEWIGAVYGTTGYIYFATWAKGRFTISKTSTTVDLKITSPTTEDTATYFCARGYLTDSIANGFGVWGPGTLVTVSS VL: ELDLTQTPASVSEPVGGTVTIKCQASQTITNRYLAWYQQKPGQPPKLLIYQSSKLASGVSSRFKGSGSGTDFTLTISDLECADAATYYCQCTDYGSTYLGTFGGGTEVEIK | 1.95 | 80 | 0.678 | ~10 |
| LA-30 (antibody, V domains shown, Rabbit monoclonal IgG; also called mAb LA-30) VH: EQSVESGGGLVQPEGSLTLTCKASGFDFSRNAICWVRQAPGKGPEWIACYSFSSSATYYASWAKSRFTISKTSSTTVTLQMTSLTAADTATYFCARVDIYGGSRYWGMWGPGTLVTISS VL: ELVMTQTPASVEAAVGGTVTIKCQASQNIGGDLAWYQQKPGQPPKLLIYRASTLESGVPSRFSGSGSGTEFTLTISDLECADAATYYCQDTDIGSGAFGGGTELEIK | 1.94 | 70 | 1.51 | ~10 |
| LA-82 (antibody, V domains shown, Rabbit monoclonal IgG; also called mAb LA-82) VH: EQSLEESGGDLVKPGASLTLACTASGFSFSDGYYMCWVRQAPGKGLEWIGCIHSSSGSIYYASWAKGRFTISKTSSTMVTLQMSSLTAADTATYFCARDSESYGYNPCELWGPGTLVTISS VL: ELVMTQTPASVSEAVGGTVTIKCQASQTISNYLAWYQQKPGQRPKLLIYAASSLASGVSSRFRGSRSGTEYTLTITDLECDDAATYYCQCTYYGTTYIGGAFGGGTEVEIK | – | 100 | 1.1 | ~10 |
| LA-117 (antibody, V domains shown, Rabbit monoclonal IgG) VH: QSVKESGGDLVKPGASLTLACTASGFSFSDGYYMCWVRQAPGKGLEWIGCIHSSSGSIYYASWAKGRFTISKTSSTMVTLQMSSLTAADTATYFCARDSESYGYNPCELWGPGTLVTISS VL: ELDLTQTPASVSEAVGGTVTIKCQASQTISNYLAWYQQKPGQRPKLLIYAASSLASGVSSRFRGSRSGTEYTLTITDLECDDAATYYCQCTYYGTTYVGGAFGGGTELEIK | – | 80 | 3.19 | ~10 |
| LA-222 (antibody, V domains shown, Rabbit monoclonal IgG) VH: EQSVEESGGDLVKPGASLTLTCTASGFSFTYWICWVRQAPGKGLEWIACIYAGSSGDTYYASWAKGRFTISKTSSTTVTLQMTSLTAADTATYFCARSPDYVAWGYDLWGPGTRVTVSS VL: ELVLTQTPASVSAAVGGTVTINCQASQSIGTNLVWYQQKPGQPPKLLFYYASTLASGVPSRFRGSRSGTEYTLTISDLECADAATYYCQCIYYGGNYGHTFGGGTEVVVK | 0.792 | 50 | 0.905 | ~7 |
| LA-155 (antibody, V domains shown, Rabbit monoclonal IgG) VH: EQSLEESGGDLVKPEGSLTLTCTASGFSFNSNYWICWVRQTPGKGLEWIGCIYSGSSGDTYYASWAKGRFTISKTSSTTVTLQMTSLTAADTATYFCARGADYVYWSYGLWGPGTLVTISS VL: ELVLTQTPASVSAAVGGTLTIKCQASETIGTNLAWYQQKPGQPPKLLIYLASYLASGVSSRFKGSRSGTEFTLTISDLDCDDAATYYCQSTHFGNGHTFGGGTEVVVK | 0.867 | 40 | 0.746 | ~7 |
| LA-64 (antibody, V domains shown, Rabbit monoclonal IgG; also called mAb LA-64) VH: EQSLESGGGLITPGGTLTLTCTASGFTVTRYYMNWVRQAPGKGLEWIGYIYASSKTYYANWAKGRFTISKTSTTVDLKMTSLTAEDTGTYFCARGGVGNSGLNLDLWGPGTLVTISS VL: ELVLTQTPASVSEPVGGTVTIKCQASQSIGSWLAWYQQKPGQPPKLLIYQASRLASGVSSRFGGSGSGTEFTLTISDLECADAATYYCQQAEYSGDVENTFGGGTEVVVK | 2.29 | 90 | 1.5 | ~10 |
| LA-87 (antibody, V domains shown, Rabbit monoclonal IgG; also called mAb LA-87) VH: QSVKESGGRLVTPGGSLTLTCTVSGFSLSNYNIQWVRQAPGKGLEWIGFISPAGNGYYASWAKGRFTISKASSTTVELKMTSLTASDTATYFCARHWDLWGPGTLVTISS VL: ELVLTQTASSVSAAVGGTVTISCQSSQSVYSNYLSWFQQKPGQPPKELVYWTSTLQSGVPSRFSGSGSGTQFTLTISDLECDDAATYYCLGGYSGWFYAFGGGTEVVVK | 0.844 | 60 | 1.45 | ~10 |
| LA-95 (antibody, V domains shown, Rabbit monoclonal IgG; also called mAb LA-95) VH: EQSLKESGGRLVTPGGSLTLTCTASGFDINNYNIQWVRQAPGKGLEWIGFISPAGNEYSATWAKGRFTIYKTSSTTVELKMTSLTASDTATYFCARHWDSWGPGTLVTISS VL: ELVMTQTESPVSAAVGGTVTISCQSSQSVYSNRLSWFQQKPGQPPKELVYWTSTLQSGVPSRFSGSGSGTQFTLTISDLECDDAATYYCLGGYSGNIYVFGGGTEVEIK | 0.595 | 40 | 0.711 | ~7 |
| LA-37 (antibody, V domains shown, Rabbit monoclonal IgG; also called mAb LA-37) VH: EQSLEESGGDLVKPGASLTLTCKASGFSFSSSEFMCWVRQAPGKGLEWIACIYGGLSDDTYFASWAKGRFTISKTSSITVTLQMTSLTAADTATYFCARSCDVNYYGFDPWGPGTLVTISS VL: ELVLTQTPAPVSAAVGDTVTIKCQASQNKGTNLAWYQQKPGQPPKLLIYLSSTLASGVPPRFKGSRSGTEYTLTISDLECADAATYFCQSTYYGSNGLTFGGGTEVEIK | 1.08 | 50 | 0.86 | ~8 |
| LA-63 (antibody, V domains shown, Rabbit monoclonal IgG; also called mAb LA-63) VH: EQSVEESGGRLVAPGGSLTLTCTVSGFSLSSYAMSWVRQAPGKGLEWIGVMYNSGSAYYASWAKGRFTISRTSTTVDLKVTSLTTEDTATYFCGRGGSNSAWGDDLWGPGTLVTVSS VL: ELDMTQTPASVSEPVGGTVTIKCQASQSISIRYFSWYQQKPGQPPKLLIYGASTLASGVPSRFKGSGSGTDFTLTISDLECADAATYYCQDSNYNSNYFGAFGGGTEVVVK | 1.31 | 234000 | 2.42 | – |
| LA-35 (antibody, V domains shown, Rabbit monoclonal IgG; also called mAb LA-35) VH: EQSVKESGGRLVTPGTPLTLTCTVSGIDLSYYSMGWFRQAPGKGLEWIGVISSSDSTYYANWAKGRFTISKTSTTVDLKIAGPTTEDTATYFCARVLANSYNAFNLWGPGSLVTISS VL: ELDLTQTPASVSEPVGGTVTIKCQASQSVGSRLAWYQQKPGQPPKLLIYKASTLASGVPSRFKGSGSGTQFTLTMSDLECADAATYYCQCTNISSAYLGAFGGGTEVEIK | 1.13 | 80 | 1.1 | ~10 |
| LA-101 (antibody, V domains shown, Rabbit monoclonal IgG) VH: EQSVEESGGRLVTPGTPLTLTCTVSGFSLSSFHMCWVRQAPGKGLEYIGIIYPGGSTGYANWAKGRFTVSKASNTVDLKISSPTTEDTATYFCARVNYGDWINGMDLWGPGTLVTISS VL: ELDMTQTPASVSEPVGGTVTIKCQASQSIGSNLAWYQQKPGQRPKLLIYKASTLASGVPSRFKGSGSGTDFTLTISDLECADAASYYCQQAYWSGNVDNVFGGGTEVEIK | – | 50 | 2.92 | ~8 |
